US8722043B2, “Induction of p53 expression by neutralization of neuropilin-2 for the treatment of cancers” (Diaclone, priority 2008, dated 2014)

Assays:
[1] = system: VEGFR1; assay: Western blotting of VEGFR1 phosphorylation; format: cell-based, human; settings: 20 μg/ml, 24 hours; HT29-NRP-2 and Colo320^siRNA-ctrl cells; treated versus not treated
Procedure: The possible effect of the ITAC-B1 antibody on the degree of phosphorylation of a VEGF receptor (VEGFR1), and also on the phosphorylation of the AKT protein which is activated by means of the VEGF receptors, was studied on HT29-NRP-2 and Colo320^siRNA-ctrl tumour cells.
The cells were cultured for 24 hours in RPMI medium+10% FCS in the presence of the BZ1 control antibody at 20 μg/ml, of ITAC-B1 at 20 μg/ml or of 5-FU at 50 μg/ml. A “nontreated cell” control was added (“medium” control). The cells were then isolated and lysed, and the phosphorylation of VEGFR-1 and of AKT was evaluated by Western blotting on the cell protein extracts, using antibodies directed against nonphosphorylated VEGFR1 (anti-VEGFR1 rabbit polyclonal antibody) or phosphorylated VEGFR1 (anti-phospho-VEGFR1^Tyr1213 rabbit polyclonal antibody, R&D systems) or antibodies directed against nonphosphorylated AKT (rabbit polyclonal antibody C67E7, Cell Signaling technology) or phosphorylated AKT (anti-phospho-AKT^Ser473 rabbit polyclonal antibody DE-9, Cell Signaling technology). The results are represented in FIGS. 16 and 17.

[2] = molecular target: T1, neuropilin-2 on HT29-NRP-2 tumour cells (Homo sapiens, UniProt O60462); assay: Competition between VEGFa and ITAC-B1 for recognition of neuropilin-2 (flow cytometry); format: binding; settings: preincubation with VEGF 1000 ng/ml for 15 minutes
T1 construct: expressed in transfected cells; host or cells: HT29 (human colorectal cancer) and P815 (murine mastocytoma) cells, G418-selected
Procedure: These cells were then incubated with the ITAC-B1 antibody or with a control isotype antibody (BZ1 antibody), and analysed by flow cytometry as described in Example 2 above.

[3] = system: Colo320 human tumour cells; assay: Tumour colony formation in semi-solid agar medium; format: cell-based
Procedure: In order to determine whether the ITAC-B1 antibody has a neutralizing activity on the formation of tumour colonies in vitro, tests for tumour colony formation in vitro in a semi-solid agar medium containing agar were carried out. The principle of this test is based on bringing Colo320 human tumour cells (which express NRP-2 at their membrane surface and, furthermore, naturally secrete VEGF into the culture medium) into contact with the ITAC-B1 antibody. 4000 Colo320 cells are seeded into each well of a 24-well plate, in a semi-solid medium containing agar, and in the presence of 10 μg/ml of anti-NRP-2 antibody ITAC-B1. By way of comparison, the same test is carried out in the presence of cytotoxic agents with a proven action, i.e. 5-fluorouracil (5-FU), used at a rate of 50 μg/ml, or of Avastin® (bevacizumab: humanized monoclonal antibodies directed against VEGF), used at a rate of 50 μg/ml, or in the presence of a control isotype antibody (mouse IgG1 monoclonal antibody (BZ1)), used at a rate of 10 μg/ml.
At 10 days post-seeding, the colonies were counted under an optical microscope.
Since neuropilin-2 is a coreceptor for VEGF, it was verified whether the activity of ITAC-B1 was dependent on an interaction between NRP-2 and the VEGF produced by the Colo320 cells. With this aim, the tests for Colo320-cell colony formation were carried out under the conditions described above, and in the presence of ITAC-B1 antibody (10 μg/ml), of bevacizumab (50 μg/ml) or of control antibody (10 μg/ml), used separately or in combination.
The results are given in FIG. 10: the y-axis represents the number of colonies formed; on the x-axis, the antibodies present in the culture medium are indicated by a “+”.

[4] = system: Colo320^siRNA-ctrl cells (express NRP-2); assay: MTT assay for tumour cell proliferation; format: cell-based, human; settings: 5 μg/ml antibody; 24, 48 or 72 hours
Excerpt: (§1) The MTT proliferation assay is based on the reduction of 3-(4,5-dimethylthiazol-2-yl)-2,5-diphenyltetrazolium bromide), by the mitochondrial succinate dehydrogenase of active live cells, to give formazan. The coloration intensity (OD) induced by this reaction is proportional to the number of live cells present during the assay, and to the metabolic activity thereof.
(§2) 4000 cells per well of Colo320^siRNA-ctrl cells (control cells transfected with an empty vector) or of Colo320^siRNA-NRP-2 cells (transfected with an siRNA targeting NRP-2), in 100 μl of DMEM medium containing 10% of inactivated FCS, were seeded into a 96-well Maxisorp plate. After adhesion of the cells, 5 μg/ml of ITAC-B anti-NRP-2 antibody or 5 μg/ml of control antibody were added. After culture for 24, 48 or 72 hours, 10 p. 1 of MTT reconstituted at 5 mg/ml in PBS were added to each culture well. The plates were then incubated for 3 hours in the dark, at 37° C. and 5% CO2, and centrifuged, and then the supernatant was removed. 200 p. 1 of DMSO were then added to each well. The optical density was read within an hour, at 570 nm, after shaking with the plate. The assay was carried out in triplicate.
(§3) Panels A and B of FIG. 11 represent, respectively, the results obtained in the proliferation assay carried out with the Colo320^siRNA-ctrl or Colo320^siRNA-NRP-2 cells. […]

[5] = system: Colo320^siRNA-NRP-2 cells (not expressing NRP-2); assay: MTT assay for tumour cell proliferation; format: cell-based, human; settings: 5 μg/ml antibody; 24, 48 or 72 hours
Excerpt: as §1, §2, §3

[6] = system: Colo320siRNA-ctrl cells; assay: Annexin V-APC apoptosis test with or without PFTα pretreatment; format: cell-based, human; settings: 20 μg/ml, 5 h
Procedure: In order to correlate the induction of apoptosis with p53 expression, the Colo320siRNA-ctrl cells were pretreated for 18 h with a chemical inhibitor of p53, pifithrin-α, at a dose of 27 μM (PFTα, Sigma). After pretreatment, the cells are washed twice with 3 ml of PBS and placed in a 24-well plate, at a rate of 100 000 cells/well in 1 ml of RPMI-10% FCS. Non-pretreated cells are placed under the same conditions. The cells are incubated for 5 h with a control murine isotype antibody (BZ1) or ITAC-B1 at 20 μg/ml and the apoptosis is measured as described above.
FIG. 14 represents the results of the apoptosis-induction experiments carried out with the Colo320siRNA-ctrl cells pretreated or not pretreated with PFTα. The percentage of cells labelled with Annexin V-APC is indicated on the y-axis, the cell culture conditions are indicated on the x-axis (control consisting of medium, control consisting of medium supplemented with a control isotype antibody -BZ1-, test consisting of medium supplemented with the ITAC-B1 antibody). The results of the tests carried out with cells pretreated with PFTα are represented in light grey, those of the tests carried out with non-pretreated cells are represented in dark grey.

T1 sequence (O60462 21-931): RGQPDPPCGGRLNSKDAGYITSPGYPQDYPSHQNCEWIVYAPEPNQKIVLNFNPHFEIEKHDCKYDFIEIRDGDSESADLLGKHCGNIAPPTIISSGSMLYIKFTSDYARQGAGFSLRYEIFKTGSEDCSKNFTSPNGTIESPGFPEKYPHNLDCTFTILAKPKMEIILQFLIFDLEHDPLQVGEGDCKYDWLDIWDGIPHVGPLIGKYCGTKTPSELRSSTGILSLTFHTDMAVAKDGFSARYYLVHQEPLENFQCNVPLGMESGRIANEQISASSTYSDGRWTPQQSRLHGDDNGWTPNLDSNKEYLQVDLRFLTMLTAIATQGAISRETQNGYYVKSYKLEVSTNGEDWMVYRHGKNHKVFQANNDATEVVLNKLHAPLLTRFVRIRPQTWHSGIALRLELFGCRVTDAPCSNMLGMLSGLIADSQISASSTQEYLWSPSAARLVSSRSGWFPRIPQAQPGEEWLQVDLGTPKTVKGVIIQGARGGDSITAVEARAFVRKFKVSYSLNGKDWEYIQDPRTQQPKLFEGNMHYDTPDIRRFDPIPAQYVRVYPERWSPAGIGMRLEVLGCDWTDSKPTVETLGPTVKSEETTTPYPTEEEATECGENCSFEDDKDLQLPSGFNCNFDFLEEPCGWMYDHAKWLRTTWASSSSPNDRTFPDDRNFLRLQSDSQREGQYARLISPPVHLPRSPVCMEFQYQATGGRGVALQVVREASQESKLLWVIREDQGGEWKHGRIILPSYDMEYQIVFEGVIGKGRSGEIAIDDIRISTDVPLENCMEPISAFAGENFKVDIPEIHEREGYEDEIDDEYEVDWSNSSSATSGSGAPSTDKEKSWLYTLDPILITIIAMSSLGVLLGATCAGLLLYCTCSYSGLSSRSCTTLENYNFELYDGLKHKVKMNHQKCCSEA

B1: ITAC-B1: anti-human neuropilin-2 murine monoclonal antibody, VH SEQ ID No. 2, VL SEQ ID No. 4, produced by hybridoma CNCM 1-4054 (antibody, listed as Mus musculus, V domains shown)
VH: EVKLQESGAELVKPGASVKLSCTVSGFNIKDTYIHWVIQRPEQGLEWLGRIDPANGNTKYDPKFQGKATITADTSSNTAYLQLSSLTSEDTAVYYCARWAVVGDYWGQGTTLTVSS
VL: YCDHPLYKFLHVSAGDRVTITCKASQSVSDDVAWYQQKPGQSPKLLIYSASNRYTGVPDRFTGSGYGTDFTFTISTVQPEDLAVYFCQQDYSSPTFGSGTKLELK
Q: With B1 as the molecule, how does the “phosphorylation status of VEGFR” value [1] read?
A: similar

Q: What about the “binding to the tumour cells in the presence of VEGFa” value [2] of the same molecule?
A: does not prevent the binding of ITAC-B1 to the tumour cells

Q: And the “number of colonies compared with the cells alone control” value ([3]; ITAC-B1 10 μg/ml alone (FIG. 10))?
A: greatly reduced

Q: What about the number of colonies ([3]; ITAC-B1 10 μg/ml combined with bevacizumab 50 μg/ml (FIG. 10)) of the same molecule?
A: identical to that observed when the medium contains the ITAC-B1 antibody alone

Q: And the “proliferation (OD at 570 nm)” value [4]?
A: less than that of the cells alone and that observed in the presence of the control antibody

Q: What about the “proliferation (OD at 570 nm)” value [5] of the same molecule?
A: identical to that of the control cells and to that observed in the presence of the control antibody

Q: And the “percentage of cells labelled with Annexin V-APC” value ([6]; cells pretreated 18 h with PFTα 27 μM)?
A: approximately 28%

Q: And the “percentage of cells labelled with Annexin V-APC” value ([6]; non-pretreated cells)?
A: 41%
